Reference: US11833215B2, “CKIT antibody drug conjugates” (Novartis AG, priority 2014, dated 2023)
“Also recorded” adds a separate entry of the source.

Test system: primary human mast cells
Test: mast cell apoptosis (Caspase-Glo 3/7)
Format: cell-based
Conditions: 0.05-100 nM, 1.6 nM rhSCF, 48 h
Procedure: Primary human mast cells were cultured from peripheral human blood according to the methods described by Saito et al., Nature Protocols 2006; 1(4):2178-2183. Mast cells, which had been in liquid culture for a minimum of one week, were incubated with increasing concentrations (0.05-100 nM) of the anti-human cKIT Abs, NEG085 and 20376, or an isotype control IgG, in the presence of 1.6 nM rhSCF (Genscript, Cat #Z00400, Piscataway, NJ), for 48 h at 37° C. before the addition of the Caspase-Glo® 3/7 reagent (Promega, Cat #G8093, Madison, WI) to measure apoptosis. Following 30 min incubation at room temperature, luminescence was recorded on the BioTek® Synergy plate reader (BioTek, Winooski, VT).

B1: NEG085: anti-cKIT antibody of Table 3, VH SEQ ID NO 82, VL SEQ ID NO 91 (antibody, listed as Homo sapiens, V domains shown)
VH: EVQLVESGGGLVQPGGSLRLSCAASGFAFSGYYMAWVRQAPGKGLEWVANINYPGSSTYYLDSVKGRFTISRDNAKNSLYLQMNSLRAEDTAVYYCARGDYYGTTYWYFDVWGQGTTVTVSS
VL: DIQMTQSPSSLSASVGDRVTITCRASQSISSYLNWYQQKPGKAPKLLIYYTSRLQSGVPSRFSGSGSGTDFTLTISSLQPEDFATYYCQQGRRLWSFGGGTKVEIK
apoptosis of primary human mast cells: do not mediate primary human mast cell apoptosis; also recorded: do not lead to apoptosis
